Test results as given in patent publication US20080206140A1.

Target: Ab126 antibody
Assay: direct competition ELISA: 0.1 µg recombinant PCNA on plate, peptide UMPB6 (0.024-2400 ng/well) mixed with Ab126, anti-rabbit IgG-AP, OD 405 nm

IC50: 0.1 µg/mL
Binder: LGIPEQEY [antigenic peptide UMPB6 (equivalent to PCNA amino acids 126-133)]
